Source: the RNAGym collection of RNA variant scans (doi:10.1073/pnas.2313332121)

B1: TPR t1 (parent)
chain: GACCAAUCUGCCCUCAGAGCUCGAGAACAUCUUCGGAUGCAGAGGAGGCAGGCUUCGGUGGCGCGAUAGCGCCAACGUCCUCAACCUCCAAUGCAUCCCACCACAUGAUGAUGCCUGAAGAGCCUUGGUUUUUUG

Variants of: B1
Assay: polymerase ribozyme fitness, log enrichment relative to wild type (log ratio); higher = more active; in vitro selection for triplet polymerase activity
Procedure, shortened: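 Fitness compares each genotype's enrichment to that of the wild type on a logarithmic scale, averaging replicates with inverse-variance weights. The logarithm is base 2. Enrichment came from Illumina sequencing of input and output libraries after one triplicate round of in vitro selection, which included frozen incubation at −7 °C, of PCR-built, transcribed mutant libraries of each subunit of a heterodimeric triplet polymerase ribozyme. Only genotypes with ≥10 input reads and ≥1 read per output were kept.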

In order of falling “polymerase ribozyme fitness (log ratio)” value:
1. C80U A121U  1.34
2. C85U C124G  0.923
3. C85A A121C  0.793
4. U87A G120A  0.663
5. C85U U112A  0.416
6. C86A A111C  0.315
7. U87C U96A  0.252
8. G77A G120U  -0.0426
9. C79G C124G  -0.0918
10. U81A C89U  -0.112
11. C82G G120A  -0.124
12. C86G A111G G135A  -0.134
13. U78C A83U C115A  -0.234
14. C80A C124A  -0.56
15. C82G G120U  -0.592
16. C82U C115A  -0.595
17. C88A C115U  -0.599
18. U81A G120A  -0.668
19. A83C C89U A95C  -0.794
20. C80U C94U  -0.851
21. A83U U133G  -0.873
22. A83C A84C  -0.925
23. C88A G135U  -0.929
24. C82U C115U  -1.02
25. C79G U131G  -1.06
26. C79A C115A G127C  -1.07
27. U87A A119U G128A U131G  -1.07
28. C88A C94G U112C G120C  -1.09
29. A83U C114A  -1.1
30. C85A G122A  -1.14
31. A83C U126C  -1.26
32. C82G C88G  -1.26
33. U78C G93A U112C G128U  -1.32
34. A84U G110U  -1.34
35. U87A U106G  -1.35
36. U87G U106G  -1.41
37. U78A C115U  -1.41
38. G77C U129A  -1.42
39. A84U A90U  -1.49
40. U78C G113A A118G U134G G135U  -1.82
41. C85U U130A  -1.86
42. C86G A91G  -1.96
43. G77U C101G  -1.96
44. A84U C86A U125G  -1.97
45. A84U C88U G93A G128A  -2
46. C80U C101U G128A  -2.13
47. U78C C102U  -2.14
48. C86G G128A  -2.15
49. U87A U106A G113A  -2.17
50. C86U A111G C123A G127A  -2.33
51. C82U A90U C97U A118G  -2.4
52. U78A C114G  -2.43
53. C85G G128A  -2.55
54. U78A G113C  -2.57
55. U81G A118U  -2.58
56. A84C C89A G113A  -2.63
57. C85A C115U  -2.7
58. U81A G127U  -2.76
59. C80A A121G  -2.89
60. U78G U116A  -3
61. A83G A84U C102A U112A G127U  -3.04
62. C82U A83U A111U  -3.12
63. A83U C88A G128C  -3.29
64. C85G A118U U126G  -3.39
65. C80U C114G  -3.48
66. U87C C99U U129G  -3.62
67. C79A A91C  -3.69
68. U81G G120U  -3.76
69. C86G G93A G113C  -4.01
70. U81A A90C U92C  -4.05
71. G77A U87A A111U G122U  -4.12
72. C85G C99U  -4.35
73. C79G C102U  -4.67
74. C79G C89U G117A  -4.75
75. C79G A84C C104A  -4.75
76. U78A C97A  -4.8
77. C85U U109G  -5.2
78. C86U G107U  -5.23
79. U81A U106C G110A G113C C114U A119G  -5.29
80. C88A G113C G122A U129A  -5.29
81. C79G A83G G117C  -5.42
82. C80G C104U  -5.71
83. U78C A84G C97G  -5.87
84. C85U A108U C123G  -6.32
